Measurements from US9603953B2, “Dendrimer compositions, methods of synthesis, and uses thereof” (priority 2014, dated 2017).
Entries after “also recorded” stand apart in the source; their conditions may differ.

Columns and labels:
[1] = test system: Wistar rats; assay: Acute toxicity test after intravenous and intraperitoneal administration in the rat (Example 5); format: in vivo; conditions: male Wistar rats, intravenous injection
Experimental: Species: Wistar rats RjHan: Wi (free of specific pathogens)
Number and sex and Weight: 6 healthy adult rats (males), average weight 300 g
3 groups of male rats: • Group 1 (“G5”): 2 rats (1 and 2) receiving 0.1 ml of labeled solution of dendrimer alone, one via intravenous administration, the other intraperitoneally 1 • Group 2 (“G5-HLS”): 2 rats (3 and 4) receiving 0.1 ml of the solution of the test item “G5 dendrimer {1-nitro-1H-imidazole-methyl -1,2,3-triazol-methyl-di(2-pycolyl)amine}”, one via intravenous administration, the other intraperitoneally • Group 3 (“HLS”): 2 rats (n ° 4 and 5) receiving 0.1 ml of the labeled 1-nitro-1H-imidazole-methyl -1,2,3-triazole-methyl-di-(2-pycolyl) amine, one via intravenous administration, the other intraperitoneally

[2] = Biodistribution after intravenous (intravascular) administration in the rat (Example 5); format: in vivo
Description: (§1) The removed organs (brain, kidney, liver, heart, intestine, lung, gonads, blood, urine) were weighed and their activities were counted on NaI gamma camera.

[3] = Biodistribution after in situ direct intrahepatic injection in the rat (Example 6); format: in vivo
Experimental: They were autopsied and major organs were observed macroscopically.
as §1
The assessment of radioactivity was carried out on the various organs and the carcass alone, urine and whole blood.
FIG. 6 is a scintigraphic image of biodistribution after injection: it will be noted that only the liver, stomach and intestines are discernible.

[4] = test system: humans; conditions: 1.3 GBq (35 mCi) dose; cited from earlier work

Substance	precipitation or thrombus formation at the injection site [1]	liver binding after intravascular administration [2]	retention at the site of introduction ([3]; male rat, laparotomy and direct injection into a liver segment, listed as dendrimer conjugate)	hepatic binding rate ([3]; rat, direct intrahepatic injection, sacrifice at 60 min, 99mTc-labelled)	biodistribution outside the targeted site ([3]; rat, in situ administration at a hepatic lobe, scintigraphy (FIG. 6))	initial injected dose by hepatic mass charged with the test item ([3]; rat, in situ intrahepatic injection, liver)	systemic toxicity in humans [4]
Dendrimer G5 {1-nitro-1H-Imidazole-methyl-1,2,3-triazol-methyl-di-(2-pycolyl)amine}	no precipitation was observed or thrombus formation	1.53 % DIg	remains almost stable at the site of introduction; also recorded: has not moved a lot from the site of its deposition	53.7%	negligible	33.5 % DIg	
rhenium-188 hydroxyethylidene diphosphonate							no significant toxicity
